Values joined by “and” are separate entries in the source; they are usually repeats but may differ in a detail not shown here. Equal entries are not always repeated.
Legend:
DENND10 (recombinant) = target: T1, DENND10 (recombinant) (human, UniProt Q8TCE6 1-357); assay: ITC; 50 μM DENND10 titrated into 10 μM wild type or mutant CCDC22(325–485)+CCDC93(310–488) complex, 100 mM Tris pH 7.4, 300 mM NaCl, 25°C, single site model; conditions: both partners purified
T1 construct: DENND10/FAM45A, human; also called FAM45A; recombinant DENND10; source: E. coli BL21 (DE3) (pGEX6P-1), purified (glutathione resin, gel filtration)

VPS29 (recombinant) = VPS29 (recombinant) (human, UniProt Q9UBQ0 1-182); assay: ITC; VPS35L peptides at 600 μM titrated into 20 μM VPS29, 100 mM Tris pH 7.4, 300 mM NaCl, 25°C, single site model; conditions: both partners purified

T1 sequence (Q8TCE6 whole entry): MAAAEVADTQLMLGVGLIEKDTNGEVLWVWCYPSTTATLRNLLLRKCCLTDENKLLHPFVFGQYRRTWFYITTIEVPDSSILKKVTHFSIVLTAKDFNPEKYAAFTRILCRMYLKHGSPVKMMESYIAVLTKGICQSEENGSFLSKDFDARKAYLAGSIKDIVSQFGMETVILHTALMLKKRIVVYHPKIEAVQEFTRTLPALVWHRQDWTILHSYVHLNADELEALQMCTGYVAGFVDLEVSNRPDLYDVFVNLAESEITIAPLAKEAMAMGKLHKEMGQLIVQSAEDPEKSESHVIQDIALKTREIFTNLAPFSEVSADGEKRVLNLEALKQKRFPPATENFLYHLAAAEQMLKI

Binder | Kd (DENND10 (recombinant)) | Kd (VPS29 (recombinant)) [nM]
CC1-CC2 complex (CCDC22(325–485) + CCDC93(310–488)), wild type (complex, human, CCDC22, human, CC1 and CC2 coiled-coil regions; CCDC93, human, CC1 and CC2 coiled-coil regions; also called CCDC22-CCDC93; source: E. coli BL21 (DE3), co-expressed (pRSF-duet), purified (Talon, gel filtration)) chain 1: VTWAAQEQELESLREQLEGVNRSIEEVEADMKTLGVSFVQAESECRHSKLSTAEREQALRLKSRAVELLPDGTANLAKLQLVVENSAQRVIHLAGQWEKHRVPLLAEYRHLRKLQDCRELESSRRLAEIQELHQSVRAAAEEARRKEEVYKQLMSELETLP chain 2: GTSQLHRRKVISLNKQIAQKTKHLEELRASHTSLQARYNEAKKTLTELKTYSEKLDKEQAALEKIESKADPSILQNLRALVAMNENLKSQEQEFKAHCREEMTRLQQEIENLKAERAPRGDEKTLSSGEPPGTLTSAMTHDEDLDRRYNMEKEKLYKIRLLQARRNREIAILHRKIDEV | 34 nM and 28 nM | 
CC1-CC2 complex, CCDC22 (V360E) (complex, human, CCDC22, human, CC1 and CC2 coiled-coil regions; CCDC93, human, CC1 and CC2 coiled-coil regions; source: E. coli BL21 (DE3), co-expressed (pRSF-duet), purified (Talon, gel filtration)) chain 1: VTWAAQEQELESLREQLEGVNRSIEEVEADMKTLGESFVQAESECRHSKLSTAEREQALRLKSRAVELLPDGTANLAKLQLVVENSAQRVIHLAGQWEKHRVPLLAEYRHLRKLQDCRELESSRRLAEIQELHQSVRAAAEEARRKEEVYKQLMSELETLP chain 2: GTSQLHRRKVISLNKQIAQKTKHLEELRASHTSLQARYNEAKKTLTELKTYSEKLDKEQAALEKIESKADPSILQNLRALVAMNENLKSQEQEFKAHCREEMTRLQQEIENLKAERAPRGDEKTLSSGEPPGTLTSAMTHDEDLDRRYNMEKEKLYKIRLLQARRNREIAILHRKIDEV | 47.9 ± 3.5 nM | 
CC1-CC2 complex, CCDC93 (M392R) (complex, human, CCDC22, human, CC1 and CC2 coiled-coil regions; CCDC93, human, CC1 and CC2 coiled-coil regions; source: E. coli BL21 (DE3), co-expressed (pRSF-duet), purified (Talon, gel filtration)) chain 1: VTWAAQEQELESLREQLEGVNRSIEEVEADMKTLGVSFVQAESECRHSKLSTAEREQALRLKSRAVELLPDGTANLAKLQLVVENSAQRVIHLAGQWEKHRVPLLAEYRHLRKLQDCRELESSRRLAEIQELHQSVRAAAEEARRKEEVYKQLMSELETLP chain 2: GTSQLHRRKVISLNKQIAQKTKHLEELRASHTSLQARYNEAKKTLTELKTYSEKLDKEQAALEKIESKADPSILQNLRALVARNENLKSQEQEFKAHCREEMTRLQQEIENLKAERAPRGDEKTLSSGEPPGTLTSAMTHDEDLDRRYNMEKEKLYKIRLLQARRNREIAILHRKIDEV | 89.1 ± 10 nM | 
EFASCRLEAVPLEFGDYHPLKPI (VPS35L, human, residues 16-38; also called VPS35L peptide (Glu16-Ile38); source: synthetic peptide (Genscript)) [VPS35L (16-38) peptide] |  | 1870

From article PMC10187114, “Structure of the endosomal Commander complex linked to Ritscher-Schinzel syndrome” (Cell, 2023)
